Entries after “also recorded” stand apart in the source; their conditions may differ. Blank lines part the entries; values can stand above or below the molecule they belong to. Square brackets hold non-standard residues; d marks the D form. Ends that are not written are not given here. fluorescein = N-terminal fluorescein label; pS = N[C@@H](COP(=O)(O)O)C(=O)O
Legend:
human 14-3-3 isoform σ = biological target: T1, human 14-3-3 isoform σ (Homo sapiens, UniProt P31947); test: Fluorescence polarization (FP) direct binding assay; conditions: fluorescein-labeled peptide 1 nM
T1 construct: MBP (cleaved yes); made in house; host or cells: E. coli BL21DE3
T1 sequence (P31947 1-248): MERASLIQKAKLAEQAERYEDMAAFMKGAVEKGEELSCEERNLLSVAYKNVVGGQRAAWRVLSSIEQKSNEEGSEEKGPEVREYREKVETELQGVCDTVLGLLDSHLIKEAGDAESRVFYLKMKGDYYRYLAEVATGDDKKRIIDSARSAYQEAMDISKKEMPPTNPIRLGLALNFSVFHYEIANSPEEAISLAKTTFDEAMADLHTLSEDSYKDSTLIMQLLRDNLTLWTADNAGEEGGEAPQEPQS
Experimental: (§1) Human MBP-tagged 14-3-3 isoforms were expressed from pMAL2CX plasmids [[Kilisch et al. (2016)], [Yuan et al. (2003)]] in E. coli BL21DE3 cells. After induction with […] isopropyl-β-D-thiogalactoside, the protein was expressed for 4 h at room temperature. Cells were lysed in MBP-lysis buffer [50 mM Tris–HCl pH 7.5, 150 mM NaCl, 5 mM MgCl2, 1 mM PMSF, 1× cOmplete Protease Inhibitor EDTA-free (Roche)] using a French Pressure cell (FRENCH Press, Thermo, United States). Following centrifugation at 42,000 × g and 4°C for 30 min, the supernatant was transferred to a Maltose-agarose column (1.5 ml bed volume; New England Biolabs GmbH, Germany). Captured proteins were washed six times with 10 ml wash buffer (50 mM Tris–HCl pH 7.5, 150 mM NaCl, 5 mM MgCl2) prior to elution using wash buffer including 15 mM D-maltose. To remove the MBP tag, fusion proteins were incubated with Factor Xa (New England Biolabs GmbH, Germany), at a final concentration of 0.4 μg per 1 mg fusion protein for 24 h at RT following another 72 h at 4°C. Anion exchange chromatography was finally applied to separate residual MBP using a buffer gradient from 20 mM Tris pH 8 to 20 mM Tris pH 8 with 1 M NaCl. For this a RESOURCE Q column (GE Healthcare, United Kingdom) was utilized, employing an ÄKTApurifier (GE Healthcare, United Kingdom) or an NGC Quest Chromatography System (Bio-Rad Laboratories GmbH, Germany).
(§2) FP was used to determine binding affinities of different phosphorylated and non-phosphorylated peptides derived from LRRK2 sequences (Peps4LS GmbH, Germany) toward human 14-3-3 isoforms. Direct binding assays were performed and evaluated as previously described ([Muda et al., 2014]; [Manschwetus et al., 2019]). Briefly, both dilution series of 14-3-3 isoforms ranging from final concentrations of at least 5 μM down to picomolar concentrations and dilutions of the respective fluorescein-labeled peptide (final conc. 1 nM) were prepared in FP buffer (20 mM MOPS pH 7, 150 mM NaCl, 0.005% CHAPS). Subsequently, samples were mixed in 384-well microtiter plates as duplicates (BRAND plates, pureGrade, black, BRAND GmbH & Co. KG, Germany) in a 1:1 ratio and measured using a CLARIOstar plate reader (BMG LABTECH, Germany). Two protein preparations were utilized for at least two independent replications for all measurements while high affinity binding peptides were particularly measured with a minimum of three independent replications for statistical evaluation. Data was analyzed with GraphPad Prism 6.0 (GraphPad Software, San Diego, CA, United States) by plotting obtained FP signals (mPol) against the logarithmic 14-3-3 protein concentrations. Data points represent means ± standard error of mean (SEM) of duplicates. “Ctrl.” indicates the FP signal of fluorescein-labeled peptides without 14-3-3 protein. Sigmoidal dose-response fitting was performed to define KD-values.

human 14-3-3γ = biological target: T2, human 14-3-3γ (Homo sapiens, UniProt P61981); test: as above; conditions: dilution series of 14-3-3γ (at least 5 μM down to pM), fluorescein-labeled peptide 1 nM
T2 construct: MBP (cleaved yes); made in house; host or cells: E. coli BL21DE3
T2 sequence (P61981 1-247): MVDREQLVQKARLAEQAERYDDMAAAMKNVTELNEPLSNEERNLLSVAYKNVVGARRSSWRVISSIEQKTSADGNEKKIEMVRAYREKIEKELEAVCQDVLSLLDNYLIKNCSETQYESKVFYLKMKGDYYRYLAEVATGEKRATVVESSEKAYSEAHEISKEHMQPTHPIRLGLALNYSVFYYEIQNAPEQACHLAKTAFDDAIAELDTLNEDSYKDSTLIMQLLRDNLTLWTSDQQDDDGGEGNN
Experimental: as §1, §2

[1] = system: all seven human 14-3-3 isoforms; test: Fluorescence polarization (FP) direct binding assay, statements over all isoforms; conditions: FP direct binding; all seven isoforms; fluorescein-labeled peptide 1 nM; FP buffer pH 7
Experimental: as §1, §2

human 14-3-3 isoform ϵ = biological target: T3, human 14-3-3 isoform ϵ (Homo sapiens, UniProt P62258); test: Fluorescence polarization (FP) direct binding assay; conditions: fluorescein-labeled peptide 1 nM
T3 construct: MBP (cleaved yes); made in house; host or cells: E. coli BL21DE3
T3 sequence (P62258 1-255): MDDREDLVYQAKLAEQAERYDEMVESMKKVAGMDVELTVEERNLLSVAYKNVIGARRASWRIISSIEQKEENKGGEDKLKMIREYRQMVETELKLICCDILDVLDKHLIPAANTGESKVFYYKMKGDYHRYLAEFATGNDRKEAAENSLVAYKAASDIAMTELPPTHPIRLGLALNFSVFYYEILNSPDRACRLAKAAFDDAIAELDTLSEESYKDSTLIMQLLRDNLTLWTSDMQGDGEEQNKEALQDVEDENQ
Experimental: as §1, §2

14-3-3γ = 14-3-3γ (UniProt P61981); test: fluorescence polarization direct binding
14-3-3ε = 14-3-3ε (UniProt P62258); test: fluorescence polarization direct binding; conditions: reference: unphosphorylated S1443/S1444 peptide; sites S1444
pS1444 = test: fluorescence polarisation; direct binding; dilution series of 14-3-3 isoform (at least 5 μM down to picomolar) mixed with 1 nM fluorescein-labelled peptide; 20 mM MOPS pH 7, 150 mM NaCl, 0.005% CHAPS; 384-well plates
R1441C/pS1444 = biological target: T4, R1441C/pS1444 (R1441C (stands in the printed letters)); test: as above; conditions: both partners purified
T4 construct: LRRK2-derived peptide of the Roc domain with the familial PD mutation R1441C, phosphorylated at S1444; source: synthetic peptide (Peps4LS GmbH)
T4 peptide: fluorescein-LFNIKACAS[pS]SPVILVGT

Binding to 14-3-3 isoform σ, in words (human 14-3-3 isoform σ): worst binding | Binding to 14-3-3γ, in words (human 14-3-3γ; FP buffer pH 7): micromolar affinities | Binding to 14-3-3γ, in words (human 14-3-3γ; FP buffer pH 7, listed as Phosphorylated T2524): clearly binds with micromolar affinity
Molecule: HIEVRKELAEKMRRpTSVE [pT2524, fluorescein-labeled phosphopeptide of the LRRK2 C-terminus comprising pT2524]
Binding to the human 14-3-3 isoforms, in words [1]: Micromolar affinities; also recorded: low micromolar range

KD (14-3-3ε): gained; reference no binding detected
Molecule: LRRK2 (leucine-rich repeat kinase 2) (from UniProt Q5S007) pS1444 peptide

Kd (pS1444): 195 nM | fold decrease in affinity against pS1444 (R1441C/pS1444): ≥ 30 fold
B1: human 14-3-3 isoform θ (recombinant, MBP tag removed) (natural protein, UniProt P27348 1-245, looked up)
chain: MEKTELIQKAKLAEQAERYDDMATCMKAVTEQGAELSNEERNLLSVAYKNVVGGRRSAWRVISSIEQKTDTSDKKLQLIKDYREKVESELRSICTTVLELLDKYLIANATNPESKVFYLKMKGDYFRYLAEVACGDDRKQTIDNSQGAYQEAFDISKKEMQPTHPIRLGLALNFSVFYYEILNNPELACTLAKTAFDEAIAELDTLNEDSYKDSTLIMQLLRDNLTLWTSDSAGEECDAAEGAEN
notes: 14-3-3 theta, human; Expressed from pMAL2CX plasmids; also called 14-3-3θ; source: E. coli BL21DE3, purified (maltose-agarose, Factor Xa, anion exchange)

Kd (pS1444): 802 nM | fold decrease in affinity against pS1444 (R1441C/pS1444): ≥ 30 fold
B2: human 14-3-3 isoform σ (recombinant, MBP tag removed) (natural protein, UniProt P31947 1-248, looked up)
chain: T1 sequence (P31947 1-248)
notes: 14-3-3 sigma, human; Expressed from pMAL2CX plasmids; also called 14-3-3σ; source: E. coli BL21DE3, purified (maltose-agarose, Factor Xa, anion exchange)

Kd (pS1444): 85 nM | fold decrease in affinity against pS1444 (R1441C/pS1444): ≥ 30 fold
B3: human 14-3-3 isoform η (recombinant, MBP tag removed) (natural protein, UniProt Q04917 1-246, looked up)
chain: MGDREQLLQRARLAEQAERYDDMASAMKAVTELNEPLSNEDRNLLSVAYKNVVGARRSSWRVISSIEQKTMADGNEKKLEKVKAYREKIEKELETVCNDVLSLLDKFLIKNCNDFQYESKVFYLKMKGDYYRYLAEVASGEKKNSVVEASEAAYKEAFEISKEQMQPTHPIRLGLALNFSVFYYEIQNAPEQACLLAKQAFDDAIAELDTLNEDSYKDSTLIMQLLRDNLTLWTSDQQDEEAGEGN
notes: 14-3-3 eta, human; Expressed from pMAL2CX plasmids; also called 14-3-3η; source: E. coli BL21DE3, purified (maltose-agarose, Factor Xa, anion exchange)

Second part, the molecule before the results:

Molecule: LFNIKARApSpSSPVILVGT [pS1443/pS1444, fluorescein-labeled LRRK2 Roc domain peptide doubly phosphorylated at S1443 and S1444]
Binding to 14-3-3 isoform ϵ, in words (human 14-3-3 isoform ϵ): not fitted due to an unusual binding behavior | Binding to 14-3-3γ, in words (human 14-3-3γ; FP buffer pH 7): reduced binding to 14-3-3γ compared to pS1444 | Binding to the human 14-3-3 isoforms, in words [1]: micromolar affinities; also recorded: reduced nanomolar binding affinity to micromolar values

Molecule: LRRK2 (leucine-rich repeat kinase 2) (from UniProt Q5S007) pS910 peptide
binding against the reference (14-3-3γ; reference: unphosphorylated S910 peptide, sites S910): gained

Molecule: LRRK2 (leucine-rich repeat kinase 2) (from UniProt Q5S007) pS1443/pS1444 peptide
KD (14-3-3γ; reference: pS1444 peptide, sites S1443): weaker; reference 106 ± 4 | binding against the reference (14-3-3γ; reference: unphosphorylated S1443/S1444 peptide, sites S1443,S1444): gained
